Data published in paper PMC5895705.

Target: Glucose-6-phosphate dehydrogenase aggregates formed at 50 °C (UniProt P11411)
Assay: co-sedimentation; as a1 but ClpB homo- or heterohexamers (5 μM) with G6PDH50 aggregates in the absence of DnaK

Chain of Glucose-6-phosphate dehydrogenase aggregates formed at 50 °C (P11411 whole entry): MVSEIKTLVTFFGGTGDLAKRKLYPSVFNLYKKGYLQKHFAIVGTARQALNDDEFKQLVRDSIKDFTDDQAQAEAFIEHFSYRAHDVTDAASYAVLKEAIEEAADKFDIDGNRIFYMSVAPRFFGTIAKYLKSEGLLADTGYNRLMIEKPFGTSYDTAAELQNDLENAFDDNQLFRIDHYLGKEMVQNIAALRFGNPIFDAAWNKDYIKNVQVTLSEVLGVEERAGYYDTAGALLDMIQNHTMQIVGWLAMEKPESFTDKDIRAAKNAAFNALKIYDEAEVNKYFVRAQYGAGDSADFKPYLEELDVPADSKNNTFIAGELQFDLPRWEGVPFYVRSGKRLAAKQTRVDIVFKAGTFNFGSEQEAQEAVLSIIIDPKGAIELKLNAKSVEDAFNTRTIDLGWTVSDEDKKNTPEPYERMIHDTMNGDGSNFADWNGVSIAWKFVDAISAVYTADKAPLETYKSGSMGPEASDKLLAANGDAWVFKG

- fold binding relative to wt ClpB (in the absence of DnaK): 4 fold
Substance: ClpB_(E279A/E678A) (from UniProt P63284 1-857) (natural protein)
